Assay results as given in article PMC2835468 (Matrix biology : journal of the International Society for …, 2009).

What was measured:
Assay in all cases: enzyme inhibition kinetics
[1] = biological target: T1, ADAMTS5-2 (human ADAMTS-5 deletion mutant, C-terminal FLAG-tag) (human, UniProt Q9UNA0 262-874)
T1 sequence (looked up): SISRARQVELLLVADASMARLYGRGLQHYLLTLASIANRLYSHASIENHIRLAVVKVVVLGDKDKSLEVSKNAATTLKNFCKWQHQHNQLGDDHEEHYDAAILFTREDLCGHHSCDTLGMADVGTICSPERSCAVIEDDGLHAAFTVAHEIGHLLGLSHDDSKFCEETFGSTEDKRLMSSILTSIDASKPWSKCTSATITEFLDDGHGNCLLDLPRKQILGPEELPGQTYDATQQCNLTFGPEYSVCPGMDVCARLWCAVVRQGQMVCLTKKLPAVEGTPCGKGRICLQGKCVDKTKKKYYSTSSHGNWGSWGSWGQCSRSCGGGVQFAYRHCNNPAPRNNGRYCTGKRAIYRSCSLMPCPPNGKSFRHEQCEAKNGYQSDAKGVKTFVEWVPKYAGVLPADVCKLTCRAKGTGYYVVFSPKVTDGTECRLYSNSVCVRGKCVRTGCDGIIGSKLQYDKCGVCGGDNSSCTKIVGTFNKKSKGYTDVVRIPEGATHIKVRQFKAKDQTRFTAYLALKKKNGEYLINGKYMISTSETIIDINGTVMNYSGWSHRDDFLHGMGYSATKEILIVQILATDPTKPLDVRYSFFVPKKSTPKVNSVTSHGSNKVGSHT

[2] = biological target: T2, ADAMTS5-3 (human ADAMTS-5 deletion mutant, C-terminal FLAG-tag) (human, UniProt Q9UNA0 262-731)
T2 sequence (looked up): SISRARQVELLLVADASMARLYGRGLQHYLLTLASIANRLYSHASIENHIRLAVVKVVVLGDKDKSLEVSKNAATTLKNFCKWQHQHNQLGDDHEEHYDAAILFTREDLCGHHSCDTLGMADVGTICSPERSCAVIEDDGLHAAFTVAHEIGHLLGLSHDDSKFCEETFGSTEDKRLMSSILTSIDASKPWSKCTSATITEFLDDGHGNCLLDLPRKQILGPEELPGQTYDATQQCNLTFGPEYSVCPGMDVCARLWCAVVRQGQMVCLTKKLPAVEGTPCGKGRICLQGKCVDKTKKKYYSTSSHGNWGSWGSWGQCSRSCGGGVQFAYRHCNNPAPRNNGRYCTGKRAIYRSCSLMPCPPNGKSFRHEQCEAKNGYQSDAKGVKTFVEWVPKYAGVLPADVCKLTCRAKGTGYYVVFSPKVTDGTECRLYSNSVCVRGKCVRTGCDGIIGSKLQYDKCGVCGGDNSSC

[3] = biological target: T3, Catalytic domain of human MMP-1 (MMP-1cat) (human, UniProt P03956 100-269)
T3 sequence (looked up): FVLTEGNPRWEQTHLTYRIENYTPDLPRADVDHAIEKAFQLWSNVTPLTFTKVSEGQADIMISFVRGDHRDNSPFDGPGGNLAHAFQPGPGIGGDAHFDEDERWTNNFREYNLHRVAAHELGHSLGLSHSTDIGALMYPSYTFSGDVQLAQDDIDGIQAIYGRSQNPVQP

[4] = biological target: Catalytic domain of human MMP-3 (MMP-3cat) (human, UniProt P08254 100-272)
Catalytic domain of human MMP-3 (MMP-3cat), sequence (P08254 100-272): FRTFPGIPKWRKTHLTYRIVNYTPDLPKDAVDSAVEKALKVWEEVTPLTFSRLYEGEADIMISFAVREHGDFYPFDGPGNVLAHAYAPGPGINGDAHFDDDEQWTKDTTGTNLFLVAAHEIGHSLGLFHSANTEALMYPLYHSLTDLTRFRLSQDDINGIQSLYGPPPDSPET

Ki [1]: 0.72 nM | Ki [2]: 1 nM | Ki [3]: 1.1 nM | Ki [4]: 1 nM
B1: FLAG-tagged glycosylated human TIMP-3 (full-length tissue inhibitor of metalloproteinases 3), expressed in HEK293 (natural protein, UniProt P35625 24-211, looked up)
chain: CTCSPSHPQDAFCNSDIVIRAKVVGKKLVKEGPFGTLVYTIKQMKMYRGFTKMPHVQYIHTEASESLCGLKLEVNKYQYLLTGRVYDGKMYTGLCNFVERWDQLTLSQRKGLNYRYHLGCNCKIKSCYYLPCFVTSKNECLWTDMLSNFGYPGYQSKHYACIRQKGGYCSWYRGWAPPDKSIINATDP
modifications: glycosylated (only the 27 kDa glycosylated form remained after purification; single N-glycosylation site in the C-terminal domain)
